This note sets out measurements from publication PMC11653614.

Values joined by “and” are separate entries in the source; they are usually repeats but may differ in a detail not shown here. Equal values may be shown once.

The target in the assay is Pyruvate kinase M2 (mouse (endogenous in mouse skin)) (UniProt P52480). As to the kind of experiment: not stated; detection of dimeric and tetrameric PKM2 protein levels in the skin from sham and skin flap mice on postoperative day 7.

Pyruvate kinase M2, P52480 1-531 (enzyme; other documents disagree on this pair), sequence (P52480 whole entry): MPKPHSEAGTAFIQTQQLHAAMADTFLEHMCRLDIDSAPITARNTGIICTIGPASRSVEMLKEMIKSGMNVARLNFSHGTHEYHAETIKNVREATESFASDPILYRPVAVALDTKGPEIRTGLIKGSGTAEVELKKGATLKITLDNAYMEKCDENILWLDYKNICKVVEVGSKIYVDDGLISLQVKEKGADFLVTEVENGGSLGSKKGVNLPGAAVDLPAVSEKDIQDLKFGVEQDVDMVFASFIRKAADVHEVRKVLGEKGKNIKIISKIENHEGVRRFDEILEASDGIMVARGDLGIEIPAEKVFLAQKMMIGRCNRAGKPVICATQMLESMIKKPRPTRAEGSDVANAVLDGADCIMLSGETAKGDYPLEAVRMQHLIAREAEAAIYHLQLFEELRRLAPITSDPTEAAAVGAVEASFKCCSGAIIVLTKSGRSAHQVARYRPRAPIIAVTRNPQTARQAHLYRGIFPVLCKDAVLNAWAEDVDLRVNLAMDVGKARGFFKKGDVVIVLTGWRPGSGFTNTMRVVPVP

Take “Pyruvate kinase M2, P52480 1-531 (enzyme; other documents disagree on this pair)”: the stoichiometry N is 4 and 2.
